This test addresses MpATG8A (M. polymorpha). The test is described as follows: ITC. (In ITC the heat of successive injections is recorded.)

Sequence of MpATG8A (M. polymorpha) (chain, as listed by the source): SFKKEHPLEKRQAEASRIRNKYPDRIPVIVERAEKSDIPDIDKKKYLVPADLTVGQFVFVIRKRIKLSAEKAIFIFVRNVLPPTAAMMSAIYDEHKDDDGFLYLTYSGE

By Kd is commonly meant a measure of binding affinity in units of concentration. A higher Kd goes with lower affinity. In turn, DWEIV [canonical AIM peptide (AIM wt)] gave a Kd of 0.0556 µM.
